Biological target: Hck (UniProt P08631)
Test: phosphorylation enrichment, bacterial display (enrichment ratio); higher = better substrate or ligand; peptides without Tyr show the background
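Note: 11-residue human phosphosite peptides and single-mutation variants displayed on the E. coli surface, counted by deep sequencing, each peptide's frequency after selection divided by its frequency in the unselected input library; frequency after pTyr selection over input frequency; kinase dosed for 20-30% of maximal phosphorylation in three min.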

Chain of Hck (P08631 whole entry, looked up): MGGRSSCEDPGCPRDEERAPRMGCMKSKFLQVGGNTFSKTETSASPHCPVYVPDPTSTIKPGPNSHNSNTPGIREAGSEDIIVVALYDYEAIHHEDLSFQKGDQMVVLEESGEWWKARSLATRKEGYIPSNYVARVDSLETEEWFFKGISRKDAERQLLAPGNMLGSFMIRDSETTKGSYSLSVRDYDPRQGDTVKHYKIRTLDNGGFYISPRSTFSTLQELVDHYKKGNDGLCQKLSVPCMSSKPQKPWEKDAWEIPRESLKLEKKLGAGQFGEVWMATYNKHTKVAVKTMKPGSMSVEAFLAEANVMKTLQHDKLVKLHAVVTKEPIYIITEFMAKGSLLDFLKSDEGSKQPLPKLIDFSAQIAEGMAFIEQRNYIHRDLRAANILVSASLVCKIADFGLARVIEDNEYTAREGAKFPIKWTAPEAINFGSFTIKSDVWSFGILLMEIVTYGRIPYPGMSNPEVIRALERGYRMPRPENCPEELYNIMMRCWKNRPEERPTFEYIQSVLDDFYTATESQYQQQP

Row | Sequence | phosphorylation enrichment
1 | GGGGSYNNFGN [HNRNPA1_Y312_D314N] | 0.435
2 | YTHSDYQYSQR [PKP2_Y166] | 0.391
3 | MPLTKYLKRIK [CNGB3_Y200_E199K] | 0.534
4 | KVGPGSLGSGG [RET_Y826_Y826S] | 0.323
5 | CNPLCYPTIMI [OR6K6_Y160_R159C] | 0.442
6 | ATHRGYDLDNP [MMUT_Y146_S148L] | 0.411
7 | RQSHNYLGGFA [SYK_Y47_R45H] | 0.599
8 | NGQAVYAACQT [XDH_Y1092] | 4.26
9 | HSGLAYTMERS [GLUD1_Y512] | 0.383
10 | LEFGDCHPLKP [VPS35L_Y32_Y32C] | 0.777
11 | LSSNLYFRWLT [CNGA3_Y168_P163L_YF] | 1.73
12 | RLTEGYTGPFK [ZNF862_Y181_I178T] | 0.509
13 | ILTYKYLQKPM [KIT_Y547] | 0.458
14 | EREYKYGAHNY [OAT_Y50] | 0.333
15 | FRPHLYGTPSR [ADGRE2_Y670_S665F] | 0.948
16 | DAICYYRMENA [NPHS2_Y195] | 1.11
17 | VRFMANTDETF [F8_Y450_Y450N] | 0.462

Row | Sequence | phosphorylation enrichment
18 | ALDHKYHGGGG [HBB_Y146_A143D] | 0.406
19 | TLKVGYTEKQR [EPHA3_Y659] | 0.353
20 | PGVDRYSLGTS [C5orf42_Y1451] | 0.678
21 | HGVSSYDTVIS [LDLR_Y465] | 0.846
22 | QRCYVYYYSYL [PTEN_Y176_R173C] | 1.35
23 | HQKKPYCHTHN [NRAP_Y53_A56T] | 1.13
24 | INVTIYGKTFR [EFHC1_Y177_I174V] | 0.609
25 | RRAKGYPIDLY [ITGB2_Y125] | 1.18
26 | RKELFYKADGE [SERPINC1_Y272] | 0.881
27 | KDGNGYISAAE [CALM1_Y100] | 0.542
28 | SRDDYYETIAM [NPY1R_Y347_D346Y] | 1.18
29 | PSQRRNVFFFS [PTEN_Y174_Y174N_YF] | 1.41
30 | ALRASYTPSPA [ESS2_Y418] | 0.333
31 | PINLFYLMDLS [ITGB2_Y131_D128N_YF] | 0.718
32 | MKGDFYCFLAE [YWHAG_Y131_R132C_YF] | 0.695
33 | TSPKSCPSQKH [CAP2_Y316_Y316C] | 0.472

Biological target: Jak2 (UniProt O60674)
Test: as above

Chain of Jak2 (O60674 whole entry, looked up): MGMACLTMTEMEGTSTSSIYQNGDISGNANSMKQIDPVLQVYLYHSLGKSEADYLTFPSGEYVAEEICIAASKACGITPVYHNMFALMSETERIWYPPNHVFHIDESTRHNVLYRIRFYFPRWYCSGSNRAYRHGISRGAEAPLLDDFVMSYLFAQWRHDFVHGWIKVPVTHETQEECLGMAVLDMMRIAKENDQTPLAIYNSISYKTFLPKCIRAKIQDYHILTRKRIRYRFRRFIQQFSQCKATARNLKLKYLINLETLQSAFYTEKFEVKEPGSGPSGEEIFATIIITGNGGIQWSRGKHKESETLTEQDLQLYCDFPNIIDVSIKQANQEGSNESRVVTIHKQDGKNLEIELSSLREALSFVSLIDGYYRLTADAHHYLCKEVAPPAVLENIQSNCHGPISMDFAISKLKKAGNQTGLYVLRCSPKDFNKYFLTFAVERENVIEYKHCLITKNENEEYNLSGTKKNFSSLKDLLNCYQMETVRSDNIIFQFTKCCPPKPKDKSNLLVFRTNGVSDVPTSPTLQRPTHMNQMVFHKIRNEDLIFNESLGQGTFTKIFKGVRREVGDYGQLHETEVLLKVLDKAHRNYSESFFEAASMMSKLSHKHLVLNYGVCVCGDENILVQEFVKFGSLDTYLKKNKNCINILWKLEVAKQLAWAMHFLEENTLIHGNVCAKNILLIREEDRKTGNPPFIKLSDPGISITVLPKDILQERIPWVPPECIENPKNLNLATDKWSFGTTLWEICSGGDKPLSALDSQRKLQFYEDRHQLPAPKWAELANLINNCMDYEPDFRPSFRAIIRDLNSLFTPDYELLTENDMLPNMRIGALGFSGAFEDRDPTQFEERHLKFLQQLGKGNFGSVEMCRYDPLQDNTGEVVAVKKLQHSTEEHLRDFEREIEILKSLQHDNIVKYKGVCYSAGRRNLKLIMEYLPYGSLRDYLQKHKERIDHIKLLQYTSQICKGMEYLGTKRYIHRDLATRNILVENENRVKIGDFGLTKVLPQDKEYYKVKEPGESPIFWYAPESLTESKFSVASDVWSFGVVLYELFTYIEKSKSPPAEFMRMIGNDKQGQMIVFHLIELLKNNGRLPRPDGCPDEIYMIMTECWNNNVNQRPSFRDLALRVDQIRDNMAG

Row | Sequence | phosphorylation enrichment
34 | GGGGSYNNFGN [HNRNPA1_Y312_D314N] | 0.463
35 | YTHSDYQYSQR [PKP2_Y166] | 0.757
36 | MPLTKYLKRIK [CNGB3_Y200_E199K] | 0.477
37 | KVGPGSLGSGG [RET_Y826_Y826S] | 0.466
38 | CNPLCYPTIMI [OR6K6_Y160_R159C] | 0.721
39 | ATHRGYDLDNP [MMUT_Y146_S148L] | 0.698
40 | RQSHNYLGGFA [SYK_Y47_R45H] | 0.523
41 | NGQAVYAACQT [XDH_Y1092] | 0.378
42 | HSGLAYTMERS [GLUD1_Y512] | 0.985
43 | LEFGDCHPLKP [VPS35L_Y32_Y32C] | 1.16
44 | LSSNLYFRWLT [CNGA3_Y168_P163L_YF] | 5.07
45 | RLTEGYTGPFK [ZNF862_Y181_I178T] | 0.625
46 | ILTYKYLQKPM [KIT_Y547] | 0.801
47 | EREYKYGAHNY [OAT_Y50] | 0.5
48 | FRPHLYGTPSR [ADGRE2_Y670_S665F] | 0.611
49 | DAICYYRMENA [NPHS2_Y195] | 6.63
50 | VRFMANTDETF [F8_Y450_Y450N] | 0.849

Row | Sequence | phosphorylation enrichment
51 | ALDHKYHGGGG [HBB_Y146_A143D] | 0.455
52 | TLKVGYTEKQR [EPHA3_Y659] | 0.407
53 | PGVDRYSLGTS [C5orf42_Y1451] | 0.769
54 | HGVSSYDTVIS [LDLR_Y465] | 0.911
55 | QRCYVYYYSYL [PTEN_Y176_R173C] | 4.07
56 | HQKKPYCHTHN [NRAP_Y53_A56T] | 3.44
57 | INVTIYGKTFR [EFHC1_Y177_I174V] | 1.1
58 | RRAKGYPIDLY [ITGB2_Y125] | 1.34
59 | RKELFYKADGE [SERPINC1_Y272] | 0.893
60 | KDGNGYISAAE [CALM1_Y100] | 0.685
61 | SRDDYYETIAM [NPY1R_Y347_D346Y] | 0.808
62 | PSQRRNVFFFS [PTEN_Y174_Y174N_YF] | 0.54
63 | ALRASYTPSPA [ESS2_Y418] | 0.294
64 | PINLFYLMDLS [ITGB2_Y131_D128N_YF] | 1.92
65 | MKGDFYCFLAE [YWHAG_Y131_R132C_YF] | 1.29
66 | TSPKSCPSQKH [CAP2_Y316_Y316C] | 0.73

Biological target: MERTK (UniProt Q12866)
Test: as above

Chain of MERTK (Q12866 whole entry, looked up): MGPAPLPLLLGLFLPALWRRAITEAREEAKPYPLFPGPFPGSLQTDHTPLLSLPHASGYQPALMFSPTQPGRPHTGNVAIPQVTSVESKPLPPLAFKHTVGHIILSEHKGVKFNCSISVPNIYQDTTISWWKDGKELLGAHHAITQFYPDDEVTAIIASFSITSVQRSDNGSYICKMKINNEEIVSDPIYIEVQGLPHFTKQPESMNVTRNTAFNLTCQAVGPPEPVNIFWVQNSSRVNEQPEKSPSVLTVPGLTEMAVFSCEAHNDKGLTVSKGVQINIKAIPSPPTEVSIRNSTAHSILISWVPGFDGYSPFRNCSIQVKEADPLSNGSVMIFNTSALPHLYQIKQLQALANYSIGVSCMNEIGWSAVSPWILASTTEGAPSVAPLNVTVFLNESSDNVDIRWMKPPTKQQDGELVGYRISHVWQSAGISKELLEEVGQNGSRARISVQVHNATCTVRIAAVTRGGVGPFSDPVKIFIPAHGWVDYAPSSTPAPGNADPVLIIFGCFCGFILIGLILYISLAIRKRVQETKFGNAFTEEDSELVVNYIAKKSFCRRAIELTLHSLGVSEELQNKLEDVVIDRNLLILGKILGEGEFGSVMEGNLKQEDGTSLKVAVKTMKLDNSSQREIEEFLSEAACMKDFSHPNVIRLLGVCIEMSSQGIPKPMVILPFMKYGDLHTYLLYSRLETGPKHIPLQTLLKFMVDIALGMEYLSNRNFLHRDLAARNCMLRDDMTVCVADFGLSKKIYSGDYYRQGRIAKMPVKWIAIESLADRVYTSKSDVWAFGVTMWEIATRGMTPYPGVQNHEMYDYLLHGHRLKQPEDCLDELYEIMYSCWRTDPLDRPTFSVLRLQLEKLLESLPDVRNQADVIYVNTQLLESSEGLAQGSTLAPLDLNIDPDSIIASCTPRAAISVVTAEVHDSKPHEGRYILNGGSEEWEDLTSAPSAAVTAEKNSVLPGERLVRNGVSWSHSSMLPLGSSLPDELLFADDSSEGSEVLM

Row | Sequence | phosphorylation enrichment
67 | GGGGSYNNFGN [HNRNPA1_Y312_D314N] | 0.308
68 | YTHSDYQYSQR [PKP2_Y166] | 0.474
69 | MPLTKYLKRIK [CNGB3_Y200_E199K] | 0.431
70 | KVGPGSLGSGG [RET_Y826_Y826S] | 0.3
71 | CNPLCYPTIMI [OR6K6_Y160_R159C] | 0.917
72 | ATHRGYDLDNP [MMUT_Y146_S148L] | 0.343
73 | RQSHNYLGGFA [SYK_Y47_R45H] | 0.414
74 | NGQAVYAACQT [XDH_Y1092] | 1.64
75 | HSGLAYTMERS [GLUD1_Y512] | 0.521
76 | LEFGDCHPLKP [VPS35L_Y32_Y32C] | 0.472
77 | LSSNLYFRWLT [CNGA3_Y168_P163L_YF] | 4.32
78 | RLTEGYTGPFK [ZNF862_Y181_I178T] | 0.402
79 | ILTYKYLQKPM [KIT_Y547] | 0.487
80 | EREYKYGAHNY [OAT_Y50] | 0.397
81 | FRPHLYGTPSR [ADGRE2_Y670_S665F] | 0.513
82 | DAICYYRMENA [NPHS2_Y195] | 1.28
83 | VRFMANTDETF [F8_Y450_Y450N] | 0.408

Row | Sequence | phosphorylation enrichment
84 | ALDHKYHGGGG [HBB_Y146_A143D] | 0.381
85 | TLKVGYTEKQR [EPHA3_Y659] | 0.322
86 | PGVDRYSLGTS [C5orf42_Y1451] | 0.788
87 | HGVSSYDTVIS [LDLR_Y465] | 0.811
88 | QRCYVYYYSYL [PTEN_Y176_R173C] | 2.61
89 | HQKKPYCHTHN [NRAP_Y53_A56T] | 0.627
90 | INVTIYGKTFR [EFHC1_Y177_I174V] | 0.644
91 | RRAKGYPIDLY [ITGB2_Y125] | 1.17
92 | RKELFYKADGE [SERPINC1_Y272] | 0.659
93 | KDGNGYISAAE [CALM1_Y100] | 0.47
94 | SRDDYYETIAM [NPY1R_Y347_D346Y] | 0.467
95 | PSQRRNVFFFS [PTEN_Y174_Y174N_YF] | 0.571
96 | ALRASYTPSPA [ESS2_Y418] | 0.326
97 | PINLFYLMDLS [ITGB2_Y131_D128N_YF] | 0.763
98 | MKGDFYCFLAE [YWHAG_Y131_R132C_YF] | 2.81
99 | TSPKSCPSQKH [CAP2_Y316_Y316C] | 0.476

Tested on: c-Abl (mouse)
Test: as above

Row | Sequence | phosphorylation enrichment
100 | GGGGSYNNFGN [HNRNPA1_Y312_D314N] | 0.335
101 | YTHSDYQYSQR [PKP2_Y166] | 0.444
102 | MPLTKYLKRIK [CNGB3_Y200_E199K] | 0.498
103 | KVGPGSLGSGG [RET_Y826_Y826S] | 0.482
104 | CNPLCYPTIMI [OR6K6_Y160_R159C] | 0.596
105 | ATHRGYDLDNP [MMUT_Y146_S148L] | 0.614
106 | RQSHNYLGGFA [SYK_Y47_R45H] | 0.817
107 | NGQAVYAACQT [XDH_Y1092] | 3.5
108 | HSGLAYTMERS [GLUD1_Y512] | 0.56
109 | LEFGDCHPLKP [VPS35L_Y32_Y32C] | 0.884
110 | LSSNLYFRWLT [CNGA3_Y168_P163L_YF] | 1.79
111 | RLTEGYTGPFK [ZNF862_Y181_I178T] | 0.426
112 | ILTYKYLQKPM [KIT_Y547] | 0.654
113 | EREYKYGAHNY [OAT_Y50] | 0.506
114 | FRPHLYGTPSR [ADGRE2_Y670_S665F] | 0.718
115 | DAICYYRMENA [NPHS2_Y195] | 1.03
116 | VRFMANTDETF [F8_Y450_Y450N] | 0.604

Row | Sequence | phosphorylation enrichment
117 | ALDHKYHGGGG [HBB_Y146_A143D] | 0.425
118 | TLKVGYTEKQR [EPHA3_Y659] | 0.369
119 | PGVDRYSLGTS [C5orf42_Y1451] | 0.741
120 | HGVSSYDTVIS [LDLR_Y465] | 0.779
121 | QRCYVYYYSYL [PTEN_Y176_R173C] | 1.53
122 | HQKKPYCHTHN [NRAP_Y53_A56T] | 1.21
123 | INVTIYGKTFR [EFHC1_Y177_I174V] | 0.868
124 | RRAKGYPIDLY [ITGB2_Y125] | 0.868
125 | RKELFYKADGE [SERPINC1_Y272] | 0.779
126 | KDGNGYISAAE [CALM1_Y100] | 0.546
127 | SRDDYYETIAM [NPY1R_Y347_D346Y] | 0.634
128 | PSQRRNVFFFS [PTEN_Y174_Y174N_YF] | 0.817
129 | ALRASYTPSPA [ESS2_Y418] | 0.329
130 | PINLFYLMDLS [ITGB2_Y131_D128N_YF] | 2.11
131 | MKGDFYCFLAE [YWHAG_Y131_R132C_YF] | 0.971
132 | TSPKSCPSQKH [CAP2_Y316_Y316C] | 0.688

Source: the supplement of paper PMC10065799, “High-throughput profiling of sequence recognition by tyrosine kinases and SH2 domains using bacterial peptide display” (eLife, 2023)
